In paper PMC4773810, “Novel small molecules targeting ciliary transport of Smoothened and oncogenic Hedgehog pathway activation” (Scientific Reports, 2016):

T1: human GPRASP2 (G protein-coupled receptor associated sorting protein 2), full length (human, UniProt Q96D09 1-838)
T1 construct: G protein-coupled receptor associated sorting protein 2 (GPRASP2), human, full length; also called hGPRASP2; full-length hGPRASP2; source: E. coli Rosetta2 (DE3), purified (IMAC, TEV protease, second IMAC, size exclusion chromatography)
T1 sequence (looked up): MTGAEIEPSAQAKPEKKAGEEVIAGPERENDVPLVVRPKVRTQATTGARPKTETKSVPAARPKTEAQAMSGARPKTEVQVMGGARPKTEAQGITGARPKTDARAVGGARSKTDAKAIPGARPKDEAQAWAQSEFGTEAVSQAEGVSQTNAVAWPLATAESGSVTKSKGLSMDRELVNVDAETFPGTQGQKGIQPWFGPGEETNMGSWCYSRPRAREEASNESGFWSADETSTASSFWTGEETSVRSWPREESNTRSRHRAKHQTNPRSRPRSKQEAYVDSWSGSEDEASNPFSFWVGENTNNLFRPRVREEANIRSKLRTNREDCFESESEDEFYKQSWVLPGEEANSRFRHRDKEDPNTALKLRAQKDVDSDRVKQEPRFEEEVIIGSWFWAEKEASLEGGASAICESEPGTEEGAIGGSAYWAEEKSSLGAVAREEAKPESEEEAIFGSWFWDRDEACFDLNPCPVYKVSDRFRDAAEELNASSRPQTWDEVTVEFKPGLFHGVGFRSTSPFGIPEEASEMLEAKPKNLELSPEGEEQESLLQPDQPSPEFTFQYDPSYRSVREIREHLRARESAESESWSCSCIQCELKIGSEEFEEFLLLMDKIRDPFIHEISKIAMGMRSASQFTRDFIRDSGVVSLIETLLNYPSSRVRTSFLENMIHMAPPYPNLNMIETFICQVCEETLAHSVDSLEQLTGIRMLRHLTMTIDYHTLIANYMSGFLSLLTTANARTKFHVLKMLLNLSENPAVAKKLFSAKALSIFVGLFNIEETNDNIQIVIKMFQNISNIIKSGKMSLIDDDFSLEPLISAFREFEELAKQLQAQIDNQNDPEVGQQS


Biological target: T1, human GPRASP2 (G protein-coupled …)
Assay: NMR titration; 1D 1H NMR (…) of 100 uM peptide before and after addition of hGPRASP2 to 0.78 uM; 600 MHz, 298 K; 50 mM sodium phosphate pH 8, 50 mM NaCl, 0.002% NaN3, 100 uM DTT, 90% H2O/10% D2O
Settings: both partners purified

| binding result | Binder |
| --- | --- |
| binds | KATLLIWRRTWCRL (peptide, UniProt Q99835 539-552, looked up, source: synthetic peptide (PSL GmbH)) [hSMO-WT (aa539-552) peptide] |
| binds | STWVWTKATLLIWRRTWCRL (peptide, UniProt Q99835 533-552, looked up, source: synthetic peptide (PSL GmbH)) [hSMO-WT (aa533-552) peptide] |
| binds | STLVWTKATLLIWRRTWCRL (peptide, UniProt Q99835 533-552, looked up, also called hSMOM2 peptide; peptide from human SMOM2; source: synthetic peptide (PSL GmbH)) [hSMOM2 (aa533-552-W535L) peptide] |
